In the supplement of paper PMC7932537, “Quantitative profiling of protease specificity” (PLoS Computational Biology, 2021):
± gives the uncertainty stated by the source.

Key:
MMP-2 catalytic domain = MMP-2 catalytic domain (UniProt P08253); test: kcat/KM (M-1 s-1); higher = more efficient cleavage by the protease
Method: (§1)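 Catalytic efficiency (kcat/KM) of synthetic peptides carrying hexamer sequences taken from MMP-2/9 substrate phage selections. Cleavage was measured with recombinant human MMP-2 or MMP-9 catalytic domains (expressed in HEK293, APMA-activated, active-site titrated with GM6001), in triplicate, as described in the authors' ref 27.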

MMP-9 catalytic domain = MMP-9 catalytic domain (UniProt P14780); test: as above
MMP-9 catalytic domain, sequence (P14780 whole entry, the tested form may be a part): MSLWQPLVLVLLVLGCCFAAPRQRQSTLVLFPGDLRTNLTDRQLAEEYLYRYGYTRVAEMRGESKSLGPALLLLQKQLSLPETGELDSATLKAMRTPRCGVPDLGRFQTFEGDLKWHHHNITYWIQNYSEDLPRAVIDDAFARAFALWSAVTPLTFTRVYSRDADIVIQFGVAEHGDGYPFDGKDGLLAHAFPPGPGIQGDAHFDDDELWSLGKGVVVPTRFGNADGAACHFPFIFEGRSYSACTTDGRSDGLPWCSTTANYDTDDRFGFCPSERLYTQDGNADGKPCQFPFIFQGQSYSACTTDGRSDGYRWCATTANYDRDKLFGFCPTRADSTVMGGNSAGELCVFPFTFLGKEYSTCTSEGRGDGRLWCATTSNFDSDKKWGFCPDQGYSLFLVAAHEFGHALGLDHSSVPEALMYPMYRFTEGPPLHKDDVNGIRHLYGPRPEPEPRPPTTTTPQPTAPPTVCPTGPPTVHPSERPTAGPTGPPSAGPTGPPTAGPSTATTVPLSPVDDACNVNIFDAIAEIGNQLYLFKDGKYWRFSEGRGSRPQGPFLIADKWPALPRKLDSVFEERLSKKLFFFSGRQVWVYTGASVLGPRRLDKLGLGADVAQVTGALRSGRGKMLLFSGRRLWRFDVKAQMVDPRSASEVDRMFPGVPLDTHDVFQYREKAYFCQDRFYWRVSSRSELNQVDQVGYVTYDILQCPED
Method: as §1

MMP-2 catalytic domain, sequence (P08253 whole entry, looked up, the tested form may be a part): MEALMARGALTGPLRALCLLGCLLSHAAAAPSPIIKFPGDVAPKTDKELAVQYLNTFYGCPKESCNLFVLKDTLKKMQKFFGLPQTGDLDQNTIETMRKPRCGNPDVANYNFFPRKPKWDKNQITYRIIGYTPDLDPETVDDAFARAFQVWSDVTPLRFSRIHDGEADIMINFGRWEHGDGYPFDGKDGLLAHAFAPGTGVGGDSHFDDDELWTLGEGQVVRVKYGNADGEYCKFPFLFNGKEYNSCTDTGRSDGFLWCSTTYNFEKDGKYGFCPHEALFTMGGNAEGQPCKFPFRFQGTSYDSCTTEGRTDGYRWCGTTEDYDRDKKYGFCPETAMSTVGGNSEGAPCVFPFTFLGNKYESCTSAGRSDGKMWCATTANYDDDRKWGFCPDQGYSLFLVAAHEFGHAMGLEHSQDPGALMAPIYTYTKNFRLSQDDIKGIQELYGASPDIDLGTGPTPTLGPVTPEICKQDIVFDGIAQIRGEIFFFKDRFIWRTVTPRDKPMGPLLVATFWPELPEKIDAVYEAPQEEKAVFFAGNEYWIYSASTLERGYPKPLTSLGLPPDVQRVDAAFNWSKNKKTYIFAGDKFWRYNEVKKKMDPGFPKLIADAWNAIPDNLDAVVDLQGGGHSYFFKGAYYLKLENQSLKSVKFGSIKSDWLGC

Substance | kcat/KM (MMP-2 catalytic domain) | kcat/KM (MMP-9 catalytic domain)
PRPFHH | 9900 ± 730 | 23900 ± 850
EGPAGL | 133000 ± 23000 | 55400 ± 2200
ETPRPW | 19700 ± 660 | 7950 ± 380
PKGYQG | 48000 ± 2700 | 85700 ± 1400
QSPINL | 31000 ± 750 | 61100 ± 2800
TAPSSQ | 141600 ± 1200 | 45100 ± 8000
GEPRGQ | 48000 ± 960 | 52200 ± 3000
PHGLAT | 16300 ± 2800 | 12500 ± 270
PVAIPM | 7030 ± 260 | 12400 ± 760
KSPQAM | 62600 ± 6300 | 109000 ± 7600
VPQEWR | 27700 ± 1800 | 16200 ± 1600
GPARPY | 39700 ± 1900 | 26200 ± 1600
PGPAGQ | 154000 ± 23000 | 59800 ± 2100
DRKPKA | 0 | 0
QPLEIR | 28400 ± 1100 | 45100 ± 1200
MRPVGH | 39300 ± 3400 | 31800 ± 2600
EPKPLL | 17700 ± 940 | 18900 ± 2200
NRPNNL | 88100 ± 10000 | 46200 ± 2100
SPPAAI | 79700 ± 8500 | 64400 ± 1800
PVGMKG | 60400 ± 1200 | 64000 ± 7200
RRPRPL | 25000 ± 850 | 38200 ± 2100
PQPEGL | 53800 ± 2400 | 48400 ± 2200
LPKPLR | 42400 ± 1700 | 45900 ± 2300
DSPQNL | 56400 ± 5200 | 37200 ± 4900
PQPLDL | 32300 ± 2800 | 55200 ± 2700

Substance | kcat/KM (MMP-2 catalytic domain) | kcat/KM (MMP-9 catalytic domain)
PQGLAG | 37400 ± 1300 | 40400 ± 1100
PLQLQT | 10000 ± 190 | 24900 ± 1200
MGPLGQ | 64800 ± 3000 | 73000 ± 9100
ARHYKS | 15840 ± 130 | 25200 ± 1700
PRPQAA | 13400 ± 1100 | 17000 ± 880
KSPLRQ | 6570 ± 450 | 34600 ± 230
KSPQSY | 46500 ± 1900 | 66100 ± 4700
PGPIGW | 27000 ± 1000 | 28700 ± 860
PMDIHA | 15300 ± 280 | 46000 ± 1400
WPSPFR | 36800 ± 970 | 11600 ± 180
PEPAAL | 104000 ± 6400 | 89400 ± 9500
GQPMNL | 51400 ± 4300 | 90600 ± 8800
PKALPY | 31000 ± 590 | 37300 ± 1400
PGPIGI | 22800 ± 800 | 38500 ± 1900
PRGFSH | 1390 ± 1400 | 896 ± 900
PYGIKG | 54400 ± 2400 | 51400 ± 2200
GEPFEL | 8910 ± 670 | 15500 ± 1100
EVPQAL | 47700 ± 3300 | 43200 ± 580
IRPKHF | 43200 ± 4200 | 97100 ± 7900
GPHGYK | 16400 ± 670 | 22100 ± 340
DGPVSF | 22200 ± 940 | 9530 ± 160
TTPSPI | 115000 ± 20000 | 41000 ± 7100
QGPAAI | 92100 ± 1800 | 72300 ± 1400
APALWI | 34400 ± 940 | 33400 ± 740
RPEDLR | 21300 ± 500 | 16500 ± 1300

Substance | kcat/KM (MMP-2 catalytic domain) | kcat/KM (MMP-9 catalytic domain)
PAGVKA | 51800 ± 1300 | 15200 ± 610
GPALSY | 12600 ± 210 | 17500 ± 760
PTPKAL | 35900 ± 2400 | 69100 ± 1900
GKPVSM | 69800 ± 46000 | 43700 ± 2600
GPEGMK | 9100 ± 920 | 3600 ± 320
PEGLQG | 33700 ± 1200 | 19900 ± 590
PHNILS | 23800 ± 1000 | 51700 ± 1400
PAQLHV | 26000 ± 290 | 7420 ± 290
LSPFGQ | 10000 ± 610 | 46100 ± 1800
SAAQPL | 12900 ± 340 | 11600 ± 400
PSPADI | 70600 ± 3700 | 18600 ± 1600
EPVSLA | 7230 ± 110 | 2680 ± 64
VSALSS | 24900 ± 1200 | 7040 ± 190
TQPKAM | 54700 ± 1400 | 106000 ± 4800
QPPLPL | 15400 ± 1400 | 18700 ± 350
MSPANI | 188000 ± 23000 | 94700 ± 7900
RMMREL | 25300 ± 650 | 9020 ± 390
NVARPM | 23900 ± 1000 | 27000 ± 2400
GPKGFR | 88300 ± 4700 | 34000 ± 2300
GPRYLM | 30900 ± 11000 | 37800 ± 1800
PYEWHS | 5850 ± 600 | 26000 ± 1200
PVNMTD | 15700 ± 290 | 9420 ± 660
INPQGL | 114000 ± 14000 | 74100 ± 8200
GPAGIR | 181000 ± 96000 | 49830 ± 250
PHGYKG | 34600 ± 650 | 54200 ± 4300

Substance | kcat/KM (MMP-2 catalytic domain) | kcat/KM (MMP-9 catalytic domain)
AHNLSS | 16400 ± 620 | 9130 ± 640
TPAAMT | 107000 ± 13000 | 21100 ± 1300
PSNMEG | 92000 ± 14000 | 50100 ± 8300
IPLASL | 45700 ± 960 | 3730 ± 120
PAPNSL | 87800 ± 14000 | 49000 ± 6600
PMALMD | 15300 ± 440 | 36900 ± 3300
QQPQAL | 46800 ± 2300 | 70100 ± 2900
KSPSRL | 182000 ± 45000 | 140000 ± 4400
PIQLQS | 10300 ± 350 | 11900 ± 320
HPVSMV | 32100 ± 18000 | 8720 ± 330
NPQNIR | 35600 ± 560 | 20300 ± 620
PRGVKG | 58000 ± 1400 | 62100 ± 850
KSPVGV | 15000 ± 600 | 18400 ± 730
QQPSRL | 259000 ± 29000 | 94300 ± 1600
VEPLKF | 18000 ± 700 | 48900 ± 1900
VHPSAV | 34300 ± 940 | 33900 ± 3000
SPMAFS | 18400 ± 250 | 11400 ± 440
PHPRLL | 30700 ± 650 | 75300 ± 11000
SRPAEF | 98800 ± 35000 | 16400 ± 740
PQPSEL | 51200 ± 2200 | 45500 ± 5000
NPMPIR | 22600 ± 6500 | 21200 ± 1300
GPRGLK | 125000 ± 5300 | 71030 ± 710
SIPLPL | 15100 ± 430 | 22400 ± 340
PLRQIG | 12300 ± 2000 | 33200 ± 5000
KPVNMT | 37600 ± 1600 | 84500 ± 2000
